In experiment [1] the target is histone H3 (Homo sapiens) (UniProt P68431). The following applies: cited from earlier work.
The target in experiment [2] is histone H4 (Homo sapiens) (UniProt P62805). The following applies: cited from earlier work.
Experiment [3] addresses histone H3 (Homo sapiens) (UniProt P68431). The following applies: cited from earlier work. The source holds these as a separate data set.
The target in experiment [4] is histone H3 from calf thymus histones (UniProt P68432). As to the kind of experiment: GST pull-down, immunoblot with α-H3, band level printed under lane. The following applies: calf thymus histones (CTH); CTH input 5%.

Read-outs that look alike come from different tables or passages of the source. Where only a bound is given, the exact number is not on record here.

As for EED WD40 (from UniProt O75530), in experiment [1], the Kd is above 400 µM.
Consider “53BP1 tandem TUDOR domain (from UniProt Q12888)”, for which the Kd is 20 µM in experiment [2] and 2000 µM in experiment [3].
As for “GST-ING3PHD (PHD domain of the H3K4me3 reader ING3) W385A”, the response in experiment [4] amounted to 0.3.

A word on the Kd: it is a measure of binding affinity in units of concentration.

These data come from paper PMC9993015.
